The target of this experiment is ω-fragment of β-galactosidase [β-galactosidase: P00722]. As to the kind of experiment: cell-based or functional assay.

Chain of MJ1267 (LivF)/α-fragment fusion protein (Q58663 1-257, tags or fused parts left off): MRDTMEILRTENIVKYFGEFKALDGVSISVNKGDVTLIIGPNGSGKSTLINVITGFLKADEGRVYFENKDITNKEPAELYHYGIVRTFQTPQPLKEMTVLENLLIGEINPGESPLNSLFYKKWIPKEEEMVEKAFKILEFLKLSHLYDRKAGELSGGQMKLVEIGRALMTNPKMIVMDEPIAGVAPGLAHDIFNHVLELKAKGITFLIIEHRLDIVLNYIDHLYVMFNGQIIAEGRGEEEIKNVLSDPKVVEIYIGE

“Aβ (1-42) F19P/α-fragment fusion protein (from UniProt P05067 672-713; P00722 7-58)” returned a β-gal activity, against the wild-type Aβ/α fusion of 3 fold.
“CFTR NBD1-B/α-fragment fusion protein (from UniProt P13569 404-644; P00722 7-58)” displayed a β-gal Activity (units/cell), ONPG hydrolysis in cell lysates of 5 units/cell.
“CFTR NBD1-D/α-fragment fusion protein (from UniProt P13569 419-655; P00722 7-58)” registered a β-gal Activity (units/cell), ONPG hydrolysis in cell lysates of 6 units/cell.
On the same count and under the same terms, then “GST/α-fragment fusion protein (from UniProt P08515 1-218; P00722 7-58)”, with 134 units/cell.
On the same count and under the same terms, then “MBP G32D/I33P/α-fragment fusion protein (from UniProt P0AEX9 27-392; P00722 7-58)”, with 14 units/cell; and “MBP G32D/α-fragment fusion protein (from UniProt P0AEX9 27-392; P00722 7-58)”, with 94 units/cell; and “MBP I33P/α-fragment fusion protein (from UniProt P0AEX9 27-392; P00722 7-58)”, with 46 units/cell.
Same read-out and setting: the result for “MBP wild-type/α-fragment fusion protein (from UniProt P0AEX9 27-392; P00722 7-58)” reads 102 units/cell; that for “MJ1267 (LivF)/α-fragment fusion protein (from UniProt Q58663 1-257; P00722 7-58)”, 12 units/cell; that for “TRx/α-fragment fusion protein (from UniProt P0AA25 1-109; P00722 7-58)”, 159 units/cell.

(Values after patent publication US7455978.)
